Reference: patent publication US20250186597A1, “TARGETED IMMUNE ACTIVATION WITH IL-18 IMMUNOCYTOKINES” (BRIGHT PEAK THERAPEUTICS AG, priority 2023, published 2025)

Key:
Assay type in all cases: cell-based, human
[1] = tested on: parental PD-1 negative KG-1 cells; experiment: IFN gamma secretion assay in parental PD-1 negative KG-1 cells (Example 11); conditions: IFNγ secretion
Description: The KG-1 cell line was used to generate a PD-1 expressing cell line and furthermore, to measure IFNγ release upon incubation with IL-18 variants and corresponding IL-18 immunocytokines.
IFNγ release was assessed in PD-1 positive (transduced) KG-1 cells, as well as in the parental PD-1 negative cells. 0.5×10^5 cells were seeded into a 96-well U-bottom plate in culture media (RPMI, 10% FBS, 1% L-Glutamine) and stimulated with IL-18 variants/ICs for 20-24 h. The test items were diluted to 100 nM in culture medium, followed by 7 10-fold serial dilutions. The lowest concentration assessed was […]. After incubation, IFNγ release was measured using the LEGENDplex custom human mix and match KIT (Biolegend LEGENDplex™ Human IFN-γ Capture Bead B5, 13X #740942, LEGENDplex™ HU Essential Immune Response Panel Detection Abs, #740931, LEGENDplex™ Buffer Set A #740368). To this end, cell culture supernatant was collected and diluted 1:1 with Assay Buffer. Fluorescence measurements were done with a Quanteon Flow Cytometer from Acea Biosciences. For analysis, MFI values (median fluorescence intensity) were exported and plotted against concentrations used. The EC50 values (half maximal effective concentration) were calculated based on a variable slope and four parameter analysis using GraphPad PRISM software version 9.

NK92 cells = experiment: Cellular IL-18 Binding Protein resistance assay in NK92 cells (Example 13); conditions: IL-18BP-mediated inhibition of IFNγ secretion, IL-18 analyte 1 nM
Description: The NK cell line NK-92 derived from a patient with lymphoma (ATCC, Cat #CR^L-2407) was cultured in αMEM medium supplemented with 20% FCS-Glutamax, 25 μM B-mercaptoethanol, and 100 IU/ml of recombinant Human Interleukin-2 (IL-2). On the day of experiment, cells were harvested and washed with αMEM medium without IL-2. After counting, cells were seeded at 100 000 cells/well in a 384 well titer plate and incubated at 37° C./5% CO2. Sixteen 2-fold serial dilutions of Fc fused human IL-18 binding protein isoform a (IL-18BPa; R&D systems, Cat #119-BP) were prepared in αMEM medium—1 ng/ml IL-12 containing 2 nM of each IL-18 variants and were added to the NK-92 cells. Final IL-18 analytes concentration was 1 nM and final IL-18BPa concentrations ranged from to 566 nM down to 17 pM.
(§1) After 16-20 h incubation at 37° C./5% CO2, 5 μl of supernatant were carefully transferred to a 384 microwells OPTIplate (Perkin Elmer; Cat #6007270) and Interferon-gamma (IFNγ) levels measured using the Human IFNγ AlphaLISA Assay Kit (Perkin Elmer, Cat #AL217C). […] AlphaLisa signal was then measured on an Enspire plate reader (Perkin Elmer) using 680 and 615 nm as excitation and emission wavelengths respectively. Half maximal inhibitory concentration (IC50) was calculated based on a variable slope, four parameter analysis using GraphPad PRISM software.

[2] = tested on: parental PD-1negative NK-92 cells; experiment: IL-18BP mediated inhibition of IFN gamma secretion in parental PD-1 negative NK-92 cells (Example 18); conditions: IL-18BP-mediated inhibition of IFNγ secretion, IL-18 analyte 1 nM
Description: To characterize the resistance of anti-PD1-IL18 immunocytokines (IC) on PD-1 positive cells, the NK-92 cell line was used to generate a PD-1 expressing cell line and furthermore, to measure the inhibition of IFN[…] release upon incubation with IL-18 variants and ICs in the presence of increasing quantities of human IL-18BP.
On the day of experiment, parental PD-1^negative and PD-1^positive transduced cells were harvested and washed with PBS 1× and resuspended in medium (w/o IL-2) containing 1 ng/ml of recombinant human Interleukin-12 (SinoBiologicals, Cat #CT011-H08H). After counting, cells were seeded at 100 000 cells/well in a 384 well culture plate and incubated at 37° C./5% CO2. When indicated, cells were preincubated with anti-PD-1 antibody LZM-009 at 17 uM during 30 min at 37° C. […]
as §1, with “microwell OptiIPlate” for “microwells OPTIplate”, “AlphaLISA” for “AlphaLisa”

B1: SEQ ID NO: 30: IL-18 polypeptide: E6K, V11I, C38A, K53A, T63A, C76A, C127A (protein)
chain: YFGKLKSKLSIIRNLNDQVLFIDQGNRPLFEDMTDSDARDNAPRTIFIISMYADSQPRGMAVAISVKCEKISTLSAENKIISFKEMNPPDNIKDTKSDIIFFQRSVPGHDNKMQFESSSYEGYFLAAEKERDLFKLILKKEDELGDRSIMFTVQNED
Question: How did the EC50 [1] turn out when B1 was run?
Answer: 0.012 nM

Question: What about the IC50 (NK92 cells) of the same molecule?
Answer: 488 nM

Question: What about the IC50 [2] of the same molecule?
Answer: 110 nM
